Measured values as given in patent US20240150455A1 (SHANGHAI GENBASE BIOTECHNOLOGY, published 2024).

T1: human CLDN6 (Claudin 6) (human, UniProt P56747 1-220)
T1 construct: whole, on cells; Over-expressed on CHOS cells (CHOS-hCLDN6) or naturally expressed on the tumor cells OV90, NEC8, NTERA2 and Bewo; also called hCLDN6; CHOS-hCLDN6
T1 sequence (looked up): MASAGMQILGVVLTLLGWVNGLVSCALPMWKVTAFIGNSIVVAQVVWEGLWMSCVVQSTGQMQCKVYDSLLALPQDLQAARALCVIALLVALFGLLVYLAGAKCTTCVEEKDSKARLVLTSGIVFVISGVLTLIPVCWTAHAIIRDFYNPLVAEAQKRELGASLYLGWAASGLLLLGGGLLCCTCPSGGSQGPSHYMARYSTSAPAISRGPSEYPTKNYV

T2: human CLDN9 (Claudin 9) (human, UniProt O95484 1-217)
T2 construct: whole, on cells; Over-expressed on CHOS cells by lentiviral infection; also called CHOS-CLDN9
T2 sequence (looked up): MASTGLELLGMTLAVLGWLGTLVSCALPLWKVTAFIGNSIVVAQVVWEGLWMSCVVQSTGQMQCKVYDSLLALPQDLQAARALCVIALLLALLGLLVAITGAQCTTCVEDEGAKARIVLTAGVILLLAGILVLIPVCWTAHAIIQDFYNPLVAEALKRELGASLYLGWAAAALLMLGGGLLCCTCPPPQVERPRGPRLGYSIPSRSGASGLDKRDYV


Experiments:
human CLDN6 (Claudin 6) [1] = target: T1, human CLDN6 (Claudin 6); assay: flow cytometry on CHOS-hCLDN6 cells
Experimental: (§1) Flow cytometric evaluation of mouse antibody binding to CLDN3/4/6/9: 500,000 CLDN6 expressing cells (CHOS-hCLDN6, CHOS-CLDN3, CHOS-CLDN4, CHOS-CLDN9) were placed in FACS buffer (PBS+2% FBS)/well, added with the mouse antibody to be tested and incubated at 4° C. for 1 hour. The supernatant was removed by centrifugation, washing was performed twice with FACS buffer, secondary antibody (DyLight488 goat anti-mouse IgG, Abcam, Cat. No.: ab97015) was added and incubated at 4° C. for 0.5 hours. After staining, the supernatant was removed by centrifugation, washing was performed twice with FACS buffer, the cells were resuspended with FACS buffer, and then loaded on the machine for reading. A flow cytometer (BD company, model CantoII) was used to measure and read the experimental cells. During the measurement, the cell position was first delineated according to FCS and SSC, and then the fluorescence channel corresponding to the second antibody and SSC were selected to analyze the cells.

human CLDN6 (Claudin 6) [2] = target: T1, human CLDN6 (Claudin 6); assay: flow cytometry on NTERA2 tumor cells naturally expressing human CLDN6
Experimental: (§2) 500,000 CLDN6-naturally expressing tumor cells (0V90, ATCC; NEC8, JCRB; NTERA2, Nanjing Cobioer Biosciences Co., Ltd; Bewo, Nanjing Cobioer Biosciences Co., Ltd) were placed in FACS buffer for later use, in which round-bottom low-adsorption 96-well plates were used. Antibody samples were serially diluted with FACS buffer. The diluted antibody was added to the cell plates, and FACS buffer was added to the corresponding negative control wells, and incubation was performed at 4° C. for 1 hour. […] After staining, the supernatant was removed by centrifugation, washing was performed twice with FACS buffer, and the cells were resuspended by adding FACS buffer to each well, and then loaded on a machine for reading. A flow cytometer (BD Company, model CantoII) was used to measure and read the cells in the experimental plate. During the measurement, the position of cells was first delineated according to FCS and SSC, and then the fluorescence channel corresponding to the second antibody and SSC were selected to analyze the cells. GraphPad was used for data analysis, the logarithm of antibody concentration was used on the abscissa, and the average fluorescence intensity value was used on the ordinate. […]

human CLDN6 (Claudin 6) [3] = target: T1, human CLDN6 (Claudin 6); assay: cell-based or functional assay
human CLDN6 (Claudin 6) [4] = target: T1, human CLDN6 (Claudin 6); assay: flow cytometry on Bewo tumor cells naturally expressing human CLDN6
Experimental: as §2

human CLDN6 (Claudin 6) [5] = target: T1, human CLDN6 (Claudin 6); assay: flow cytometry on NEC8 tumor cells naturally expressing human CLDN6
Experimental: as §2

human CLDN6 (Claudin 6) [6] = target: T1, human CLDN6 (Claudin 6); assay: flow cytometry on OV90 tumor cells naturally expressing human CLDN6
Experimental: as §2

human CLDN9 (Claudin 9) = target: T2, human CLDN9 (Claudin 9); assay: flow cytometry on CHOS-CLDN9 cells
Experimental: as §1

human CLDN6 (Claudin 6) [7] = target: T1, human CLDN6 (Claudin 6); assay: binding to CLDN6-expressing cells (FIG. 6: NEC8, Bewo)

Row | Binder | binding result (human CLDN6 (Claudin 6) [1]) | EC50 (human CLDN6 (Claudin 6) [2]) | ADCC EC50, Bewo target cells, Jurkat-NFAT-Luc-CD16 effector reporter cells (human CLDN6 (Claudin 6) [3]) | ADCC EC50, NEC8 target cells, Jurkat-NFAT-Luc-CD16 effector reporter cells (human CLDN6 (Claudin 6) [3]) | ADCC EC50, NTERA2 target cells, Jurkat-NFAT-Luc-CD16 effector reporter cells (human CLDN6 (Claudin 6) [3]) | ADCC EC50, OV90 target cells, Jurkat-NFAT-Luc-CD16 effector reporter cells (human CLDN6 (Claudin 6) [3]) | EC50 (human CLDN6 (Claudin 6) [4]) | EC50 (human CLDN6 (Claudin 6) [5]) | EC50 (human CLDN6 (Claudin 6) [6]) | fold change of the ability to bind against the unmutated antibody (human CLDN6 (Claudin 6) [7]) | further results
1 | anti-CLDN6 murine antibody 15H2 (antibody, V domains shown, Mouse hybridoma antibody, detected with anti-mouse IgG; the murine constant regions are not) VH: DVQLQESGPGLVKPSQSLSLTCSVTGYSITSGYYWNWIRQFPGNKLEWMGYISYDGSNNYNPSLKNRFSIIRDTSKNQFFLKFNSVTTEDTATYYCARGGYYFDYWGQGTTLTVSS VL: not shown | binds |  |  |  |  |  |  |  |  |  | 
2 | anti-CLDN6 murine antibody 9H3 (antibody, V domains shown, Mouse hybridoma antibody, detected with anti-mouse IgG; the murine constant regions are not) VH: EVQLVESGGDLVKPGGSLKLSCAASGFTFSIYGMSWVRQSPDRRLEWVATISRDGSYTYFPDSVKGRFTISRDNAKNTLYLQMSSLKSEDTAMYYCVRLGDNDRGYAMDYWGQGTSVTVSS VL: DVLMTQTPLSLPVSLGDQASISCRSSQSVVHVNGNTYLEWYLQKPGQSPRLLIYKVSNRFPGVPDRFSGSGSGTDFTLRISRVEAEDLGVYYCFQGSHVPRTFGGGTNLEIK | binds |  |  |  |  |  |  |  |  |  | binding result (human CLDN9 (Claudin 9)): binds
3 | 9H3 hotspot mutant, LCDR1 NG mutated to SG and HCDR2 DG mutated to DA (antibody, V domains shown, also called 9H3 antibody with a hotspot mutant) VH: EVQLVESGGDLVKPGGSLKLSCAASGFTFSIYGMSWVRQSPDRRLEWVATISRDASYTYFPDSVKGRFTISRDNAKNTLYLQMSSLKSEDTAMYYCVRLGDNDRGYAMDYWGQGTSVTVSS VL: DVLMTQTPLSLPVSLGDQASISCRSSQSVVHVSGNTYLEWYLQKPGQSPRLLIYKVSNRFPGVPDRFSGSGSGTDFTLRISRVEAEDLGVYYCFQGSHVPRTFGGGTNLEIK |  |  |  |  |  |  |  |  |  | ≤ 3 times | 
4 | 9H3 hotspot mutant, LCDR1 NG mutated to NA and HCDR2 DG mutated to DA (antibody, V domains shown, also called 9H3 antibody with a hotspot mutant) VH: EVQLVESGGDLVKPGGSLKLSCAASGFTFSIYGMSWVRQSPDRRLEWVATISRDASYTYFPDSVKGRFTISRDNAKNTLYLQMSSLKSEDTAMYYCVRLGDNDRGYAMDYWGQGTSVTVSS VL: DVLMTQTPLSLPVSLGDQASISCRSSQSVVHVNANTYLEWYLQKPGQSPRLLIYKVSNRFPGVPDRFSGSGSGTDFTLRISRVEAEDLGVYYCFQGSHVPRTFGGGTNLEIK |  |  |  |  |  |  |  |  |  | ≤ 3 times | 

The next lines start with results.

Row | binding result (human CLDN6 (Claudin 6) [1]) | EC50 (human CLDN6 (Claudin 6) [2]) | ADCC EC50, Bewo target cells, Jurkat-NFAT-Luc-CD16 effector reporter cells (human CLDN6 (Claudin 6) [3]) | ADCC EC50, NEC8 target cells, Jurkat-NFAT-Luc-CD16 effector reporter cells (human CLDN6 (Claudin 6) [3]) | ADCC EC50, NTERA2 target cells, Jurkat-NFAT-Luc-CD16 effector reporter cells (human CLDN6 (Claudin 6) [3]) | ADCC EC50, OV90 target cells, Jurkat-NFAT-Luc-CD16 effector reporter cells (human CLDN6 (Claudin 6) [3]) | EC50 (human CLDN6 (Claudin 6) [4]) | EC50 (human CLDN6 (Claudin 6) [5]) | EC50 (human CLDN6 (Claudin 6) [6]) | fold change of the ability to bind against the unmutated antibody (human CLDN6 (Claudin 6) [7]) | Binder | further results
5 |  | 1.02 mg/L | 0.21 mg/L | 0.071 mg/L | 0.4 mg/L | 0.16 mg/L | 0.9 mg/L | 0.91 mg/L | 3.79 mg/L |  | humanized antibody 7008-03 (antibody, human IgG1, kappa, V domains shown, Human IgG1 heavy chain constant region, human kappa light chain constant region) VH: EVQLVESGGGLVQPGGSLRLSCAASGFTFSIYGMSWVRQAPGKGLEWVATISRDASYTYFPDSVKGRFTISRDNAKNSLYLQMNSLRAEDTAVYYCVRLGDNDRGYAMDYWGQGTLVTVSS VL: DVVMTQSPLSLPVTLGQPASISCRSSQSVVHVNANTYLEWYQQRPGQSPRLLIYKVSNRFPGVPDRFSGSGSGTDFTLKISRVEAEDVGVYYCFQGSHVPRTFGGGTKVEIKR | 
6 |  | 1.22 mg/L | 0.7 mg/L | 0.15 mg/L | 0.55 mg/L | 0.55 mg/L | 1.06 mg/L | 1.31 mg/L | 2.85 mg/L |  | humanized antibody 7008-01 (antibody, human IgG1, kappa, V domains shown, Human IgG1 heavy chain constant region, human kappa light chain constant region) VH: QVQLQESGPGLVKPSETLSLTCTVSGYSITSGYYWNWIRQPPGKGLEWMGYISYSGSNNYNPSLKNRVTISRDTSKNQFSLKLSSVTAADTAVYYCARGGYYFDYWGQGTLVTVSS VL: DIVMTQSPDSLAVSLGERATINCKSSQSLLNTNNQKNYLAWYQQKPGQPPKLLIYFASTRESGVPDRFSGSGSGTDFTLTISSLQAEDVAVYFCQQHYNAPRTFGGGTKVEIKR | 
